The results in this text go back to the RNAGym collection of RNA variant scans (doi:10.7554/elife.80360).

First the molecules themselves.
B1: Twister Ribozyme (parent)
chain: AACACUGCCAAUGCCGGUCCCAAGCCCGGAUAAAAGUGGAGGGGGCGG

Variants of B1 are the subject of this series. The series is described as follows: self-cleavage, relative activity (ratio to wild type); higher = more cleavage; co-transcriptional.
As for AACACUGCAAAUGCCGGUCCCAUGCCCGGAUAAAAGUGGAGGGGGCGG [C9A A23U], the self-cleavage was found to be 0.066. As to AACACUGCCAGUGCCGGUCCCAGGCCCGGAUAAAAGUGGAGGGGGCGG [A11G A23G], the self-cleavage is 0.447. As to AACACUGCCAAUGCCGGGCCCAAGCCCGGAUAAAAGUGCAGGGGGCGG [U18G G39C], the self-cleavage came to 0.0419. CACACUGCCAAUGACGGUCCCAAGCCCGGAUAAAAGUGGAGGGGGCGG [A1C C14A]: the self-cleavage stood at 0.222.

On to AACACUGCCAAUGCCGGUCCUUAGCCCGGAUAAAAGUGGAGGGGGCGG [C21U A22U], for which the self-cleavage came to 0.072. To AACACUGCCAAAGCCGGUCCGAAGCCCGGAUAAAAGUGGAGGGGGCGG [U12A C21G] belongs 0.122; to AACACUGCCAAUGCCGAUGCCAAGCCCGGAUAAAAGUGGAGGGGGCGG [G17A C19G], 0.14; to AACUCUGCCAAUGCCGGUCCCAGGCCCGGAUAAAAGUGGAGGGGGCGG [A4U A23G], 0.0721. Consider AACAAUGCCAAUGCCGGUCCCAAGCCCGGAUAAAAGUGGAGGGGUCGG [C5A G45U], for which the self-cleavage is 0.413.

For AACUCUGCCAAUGCCGGUCCCAAGCCCGGAUAAAAGUGGACGGGGCGG [A4U G41C], the self-cleavage was 0.0883. Consider AACAUUGCCAAUGCCGGUCCCAAGCCCGGAUAAAGGUGGAGGGGGCGG [C5U A35G], for which the self-cleavage is 0.435. Regarding AACACUGCCAAUGCCGGUCCCAAGCCCGGAGAAAAGUGGAGGGGGCAG [U31G G47A], the self-cleavage came out at 0.782. AACACUGCCAAUGCCGGUCCCAAGCCCGGAUAAAAGUUGAGAGGGCGG [G38U G42A]: the self-cleavage came out at 0.129. Regarding GACACUGCCAAUGCCGGUCCCAAGCCCGGAUAAAAGUGGAGGGGGCCG [A1G G47C], the self-cleavage was determined as 0.385. AACACUGCCAGUGCCGGUCCUAAGCCCGGAUAAAAGUGGAGGGGGCGG [A11G C21U]: the self-cleavage was 0.12. In the case of AACACUGCCAAUUCCGGUCCCAAGCCCGGAUAAAAGUGGAGGCGGCGG [G13U G43C], the self-cleavage was 0.137. Consider AACACUGCCAAUGCUGGUCCCAAGCCAGGAUAAAAGUGGAGGGGGCGG [C15U C27A], for which the self-cleavage was found to be 0.105. Turning to AACACUGCUAAUGCCGGUCCCAAGCCCGGAUAAAAGUGGGGGGGGCGG [C9U A40G], the self-cleavage was determined as 0.14. With AACACUGCCAAUGCCGGUCCCAAGCCCGGCUAUAAGUGGAGGGGGCGG [A30C A33U], the self-cleavage worked out at 0.766. To AACACUGCCAAUGCUGGUCCAAAGCCCGGAUAAAAGUGGAGGGGGCGG [C15U C21A] belongs 0.138; to GACCCUGCCAAUGCCGGUCCCAAGCCCGGAUAAAAGUGGAGGGGGCGG [A1G A4C], 0.0744; to AAAACUGCCAAUGCCGGUCCCAAGCCCGGAUAAAAGGGGAGGGGGCGG [C3A U37G], 0.17. For AACACUGCCAAUGCCGGUCCGAAGCCCGCAUAAAAGUGGAGGGGGCGG [C21G G29C], the self-cleavage came out at 0.123. On to AACACUCCCAAUGCCGGUCCCAAGCCCGGAUAAAAGUGGAGGGGGCGA [G7C G48A], for which the self-cleavage is 0.0718. Turning to AACACUGCCCUUGCCGGUCCCAAGCCCGGAUAAAAGUGGAGGGGGCGG [A10C A11U], the self-cleavage worked out at 0.883. Take AACACUGCCAAUGCCGGUACCAAGCCCGGAUAAAAAUGGAGGGGGCGG [C19A G36A]: the self-cleavage was determined as 0.102. The value for AACACUGCCAAUGCCGGUCCCAAGCCCGGAUAAAAGUGGCUGGGGCGG [A40C G41U] was 0.157; that for AACACUGCUAAUGCCGGUCUCAAGCCCGGAUAAAAGUGGAGGGGGCGG [C9U C20U] was 0.264; that for AACACUGCUAAUGCCGGUCCAAAGCCCGGAUAAAAGUGGAGGGGGCGG [C9U C21A] was 0.0683. For the variant AACACUGCUAAUGCCGGUCCCAAGCCCGGAAAAAAGUGGAGGGGGCGG [C9U U31A], the self-cleavage was 0.667. For the variant AACACUGCCAAUGCCGGUCCCAAUCCCGGAUAAAAGUGGAGGGCGCGG [G24U G44C], the self-cleavage was determined as 0.0809.

Consider AACACUGCCAAUGCCGGUCCCAAGACCGGAUAAAAAUGGAGGGGGCGG [C25A G36A], for which the self-cleavage amounted to 0.0755.

AACACUGCCACUGCCGGUCCCAAGCCCAGAUAAAAGUGGAGGGGGCGG [A11C G28A]: the self-cleavage was 0.656.

As for AACACUGCCAAUGCCGGUCCUAAGCCAGGAUAAAAGUGGAGGGGGCGG [C21U C27A], the self-cleavage was 0.0634. The value for AACACUGCCAAUGCCGGUCCCAGCCCCGGAUAAAAGUGGAGGGGGCGG [A23G G24C] was 0.0875; that for AACACUGCCAAUGCCGGUCGCAAGCCCGGUUAAAAGUGGAGGGGGCGG [C20G A30U] was 0.165. As for AAUACUGCCAAUGCCGGUCCCAAGCCCGGAUAAAUGUGGAGGGGGCGG [C3U A35U], the self-cleavage was 0.421. The value for GACAUUGCCAAUGCCGGUCCCAAGCCCGGAUAAAAGUGGAGGGGGCGG [A1G C5U] was 0.328; that for AACACUGCCAAUGCCGGUCCCAAGCCCGGAUUAAAGUGGAAGGGGCGG [A32U G41A] was 0.488; that for AACACUGCAAAUGCCUGUCCCAAGCCCGGAUAAAAGUGGAGGGGGCGG [C9A G16U] was 0.254.

As to AACACUGCCAAUGCCGGUCCCACGCCCGGAUAAAAGUGGAGGGGGCCG [A23C G47C], the self-cleavage amounted to 0.13. To AACACUGCCAAUGCCGGUCCCAAGCCCGGAAAAAAGUGGAGGGGGUGG [U31A C46U] belongs 0.582; to AACACUGCCAAUGCCGGUCCCAAGCACUGAUAAAAGUGGAGGGGGCGG [C26A G28U], 0.114; to UACACUGCCAAUGCCGGUCCCAAGCCCGGAUAAAAGGGGAGGGGGCGG [A1U U37G], 0.0556. On to AACACUGCCAAAGCCGGUACCAAGCCCGGAUAAAAGUGGAGGGGGCGG [U12A C19A], for which the self-cleavage stood at 0.342.

Turning to AACACUGCCCAUGCCGGUCCCAAGCCCGGAUAAAAUUGGAGGGGGCGG [A10C G36U], the self-cleavage was determined as 0.722. As to AACACCGCCAAUGCCGGUCCCAAGCUCGGAUAAAAGUGGAGGGGGCGG [U6C C26U], the self-cleavage came out at 0.0774.

On to AACACUGCCAAUGCCGAUCCCAAGCCCGGAUAAACGUGGAGGGGGCGG [G17A A35C], for which the self-cleavage amounted to 0.637. As to AACACUGCCAAUGCCGGUCCCAAGCCAGGAUAAAAGUGGAGGGAGCGG [C27A G44A], the self-cleavage is 0.648. For AAAACUGCCAAUGCCGGUCCCAAGCCCGGAUAAAAGUGGAGGGGGCAG [C3A G47A], the self-cleavage is 0.245. Take AACACUGCCAACGCCGCUCCCAAGCCCGGAUAAAAGUGGAGGGGGCGG [U12C G17C]: the self-cleavage came to 0.0944. For the variant AACACUGCUAAUGACGGUCCCAAGCCCGGAUAAAAGUGGAGGGGGCGG [C9U C14A], the self-cleavage was determined as 0.56. To AACACUGCCAAUGCCGGUCCCAAGCCCGGACAAAAGUGGAGGGAGCGG [U31C G44A] belongs 1.1. To AACACUGCUAAUGCCGGUCCCAAGCCCUGAUAAAAGUGGAGGGGGCGG [C9U G28U] belongs 0.504.
